Assay results from article PMC4557121 (2015).

Columns and labels:
Assay in all cases: SPR
[1] = biological target: A2 with residue 4 substituted with alanine (UniProt Q13501)
M5 = biological target: M5
[2] = biological target: A2 with residue 7 substituted with alanine (UniProt Q13501)
A2 = A2 (UniProt Q13501)
M11 = biological target: M11
M2 = biological target: M2
[3] = biological target: A2 with residue 9 substituted with alanine (UniProt Q13501)
[4] = biological target: A2 with residue 3 substituted with alanine (UniProt Q13501)
M10 = biological target: M10
M1 = biological target: M1
M6 = biological target: M6

Kd [1]: 4320 nM
Kd (M5): 110 nM
Kd [2]: 11800 nM
Kd (A2): 10.2 nM
Kd (M11): 73.1 nM
Kd (M2): 402 nM
Kd [3]: 35600 nM
Kd [4]: 3590 nM
Kd (M10): 381 nM
Kd (M1): 1640 nM
Kd (M6): 0.142 nM
B1: purified TRB3 protein (natural protein)
chain: MRATPLAAPAGSLSRKKRLELDDNLDTERPVQKRARSGPQPRLPPCLLPLSPPTAPDRATAVATASRLGPYVLLEPEEGGRAYQALHCPTGTEYTCKVYPVQEALAVLEPYARLPPHKHVARPTEVLAGTQLLYAFFTRTHGDMHSLVRSRHRIPEPEAAVLFRQMATALAHCHQHGLVLRDLKLCRFVFADRERKKLVLENLEDSCVLTGPDDSLWDKHACPAYVGPEILSSRASYSGKAADVWSLGVALFTMLAGHYPFQDSEPVLLFGKIRRGAYALPAGLSAPARCLVRCLLRREPAERLTATGILLHPWLRQDPMPLAPTRSHLWEAAQVVPDGLGLDEAREEEGDREVVLYG
